Assay results from patent US20060148016A1.

Molecular target: Alexa Fluor 594 labelled calmodulin (Molecular Probes)
Experiment: gel filtration assay (Example 3): Alexa Fluor 594 labelled calmodulin eluting with the particles; reference is ferritin particles without binding molecule

Which fold signal as compared to particles produced with pET-26(+)rHuLFt does the source give for “Ferritin based particles expressing cbp on their surface (CBP-Human ferritin light chain fusion protein, plasmid pCBPHFI) (from UniProt P02792 2-175) (peptide)” here?
Its fold signal as compared to particles produced with pET-26(+)rHuLFt is 4.1 fold.
